Measurements as given in PMC12485025.

T1: p1 NTR (Tetrahymena, UniProt Q22VV9 1-150)
T1 sequence: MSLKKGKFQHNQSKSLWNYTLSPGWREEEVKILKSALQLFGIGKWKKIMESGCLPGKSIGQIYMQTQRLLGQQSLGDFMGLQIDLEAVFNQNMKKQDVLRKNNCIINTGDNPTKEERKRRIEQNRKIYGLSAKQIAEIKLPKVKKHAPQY


Target: T1, p1 NTR
Experiment: fluorescence polarization

Row | Binder | Kd
1 | umDNA 6-FAM (dsDNA) DNA 1: AACTTTCTTAACATCTTAACTTTAACT DNA 2: AGTTAAAGTTAAGATGTTAAGAAAGTT | 37 nM
2 | hmDNA 6-FAM (27ATrich_6mA_s / 27ATrich_6FAM_a) (dsDNA, N6-methyl-dA at position 13 of strand 1) DNA 1: AACTTTCTTAACATCTTAACTTTAACT DNA 2: AGTTAAAGTTAAGATGTTAAGAAAGTT | 35 nM
